The supplement of paper PMC11246515
± gives the standard deviation of the averaged measurements.

Experiment: total protein half-life in vivo (active degradation + dilution); higher = more stable protein
[1] = E. coli NCM3722 delta-clpP delta-lon delta-hslV, growth: N-lim chemostat, doubling time 6 h
[2] = E. coli NCM3722 delta-clpP, growth: N-lim chemostat, doubling time 6 h
[3] = E. coli NCM3722 delta-hslV, growth: N-lim chemostat, doubling time 6 h
[4] = E. coli NCM3722 delta-lon, growth: N-lim chemostat, doubling time 6 h
[5] = E. coli NCM3722 delta-smpB, growth: N-lim chemostat, doubling time 6 h
[6] = wild type E. coli NCM3722, growth: C-lim chemostat, doubling time 3 h
[7] = wild type E. coli NCM3722, growth: C-lim chemostat, doubling time 6 h
[8] = wild type E. coli NCM3722, growth: C-lim chemostat, doubling time 12 h
[9] = wild type E. coli NCM3722, growth: N-lim chemostat, doubling time 6 h
[10] = wild type E. coli NCM3722, growth: N-lim chemostat, doubling time 12 h
[11] = wild type E. coli NCM3722, growth: P-lim chemostat, doubling time 6 h
[12] = wild type E. coli NCM3722, growth: P-lim chemostat, doubling time 12 h

Sequence | total protein half-life in vivo [1] | total protein half-life in vivo [2] | total protein half-life in vivo [3] | total protein half-life in vivo [4] | total protein half-life in vivo [5] | total protein half-life in vivo [6] | total protein half-life in vivo [7] | total protein half-life in vivo [8] | total protein half-life in vivo [9] | total protein half-life in vivo [10] | total protein half-life in vivo [11] | total protein half-life in vivo [12]
MLQNIRIVLVETSHTGNMGSVARAMKTMGLTNLWLVNPLVKPDSQAIALAAGASDVIGNAHIVDTLDEALAGCSLVVGTSARSRTLPWPMLDPRECGLKSVAEAANTPVALVFGRERVGLTNEELQKCHYHVAIAANPEYSSLNLAMAVQVIAYEVRMAWLATQENGEQVEHEETPYPLVDDLERFYGHLEQTLLATGFIRENHPGQVMNKLRRLFTRARPESQELNILRGILASIEQQNKGNKAE [P0AE01] | 4.67 ± 0.57 h | 4.013 ± 0.028 h | 4.18 ± 0.18 h | 5.15 ± 0.92 h | 4.43 ± 0.4 h | 2.8 ± 0.32 h | 5.41 ± 0.56 h | 9.64 ± 0.46 h | 4.34 ± 0.23 h | 7.52 ± 0.47 h | 5.22 ± 0.042 h | 10.6 ± 0.77 h
MLQSNEYFSGKVKSIGFSSSSTGRASVGVMVEGEYTFSTAEPEEMTVISGALNVLLPDATDWQVYEAGSVFNVPGHSEFHLQVAEPTSYLCRYL [P0C037] | 5.23 ± 0.64 h | 3.8 ± 0.061 h | 3.59 ± 0.28 h | 4.706 ± 0.03 h | 3.46 ± 0.4 h | 2.75 ± 0.14 h | 5.02 ± 0.079 h | 9.73 ± 2.5 h | 3.78 ± 0.38 h | 5.6 h | 4.25 ± 0.35 h | 6.87 ± 0.11 h
MLQVYLVRHGETQWNAERRIQGQSDSPLTAKGEQQAMQVATRAKELGITHIISSDLGRTRRTAEIIAQACGCDIIFDSRLRELNMGVLEKRHIDSLTEEEENWRRQLVNGTVDGRIPEGESMQELSDRVNAALESCRDLPQGSRPLLVSHGIALGCLVSTILGLPAWAERRLRLRNCSISRVDYQESLWLASGWVVETAGDISHLDAPALDELQR [P0A7A2] | 4.23 ± 1.4 h | 2.57 ± 0.17 h | 2.36 ± 0.011 h | 2.852 ± 0.012 h | 2.65 ± 0.051 h | 2.75 ± 0.28 h | 4.55 ± 0.27 h | 7.06 ± 0.16 h | 2.71 ± 0.11 h | 3.84 ± 0.45 h | 4.88 ± 0.12 h | 8.06 ± 1 h
MLRFLNQCSQGRGAWLLMAFTALALELTALWFQHVMLLKPCVLCIYERCALFGVLGAALIGAIAPKTPLRYVAMVIWLYSAFRGVQLTYEHTMLQLYPSPFATCDFMVRFPEWLPLDKWVPQVFVASGDCAERQWDFLGLEMPQWLLGIFIAYLIVAVLVVISQPFKAKKRDLFGR [P0A6M2] |  | 6.09 h |  | > 8 h |  |  |  |  | 6.88 h | 9.57 h | 5.52 h | 
MLRHNVPVRRDLDQIAADNGFDFHIIDNEIYWDESRAYRFTLRQIEEQIEKPTAELHQMCLEVVDRAVKDEEILTQLAIPPLYWDVIAESWRARDPSLYGRMDFAWCGNAPVKLLEYNADTPTSLYESAYFQWLWLEDARRSGIIPRDADQYNAIQERLISRFSELYSREPFYFCCCQDTDEDRSTVLYLQDCAQQAGQESRFIYIEDLGLGVGGVLTDLDDNVIQRAFKLYPLEWMMRDDNGPLLRKRREQWVEPLWKSILSNKGLMPLLWRFFPGHPNLLASWFDGEKPQIAAGESYVRKPIYSREGGNVTIFDGKNNVVDHADGDYADEPMIYQAFQPLPRFGDSYTLIGSWIVDDEACGMGIREDNTLITKDTSRFVPHYIAG | > 8 h | > 8 h | > 8 h | > 8 h |  |  |  | 8.91 h | > 8 h | > 16 h | > 8 h | > 16 h
